Here are results for 5 molecules from article doi:10.1101/787937.

Series [1] deals with T1, YTHDC1 YTH domain (human, UniProt Q96MU7 345-509). The series can be described thus: X-ray crystallography.
The target of series [2] is T1, YTHDC1 YTH domain. As to the kind of experiment: ITC. In general terms: ITC needs no label: the signal is the heat of the interaction.

Turning to GGAC (ssRNA, m6A at position 3) [GG(m6A)C], in series [1], the binding result was “binds”.

For the molecule GGACU (ssRNA, m6A at position 3) [GG(m6A)CU], the Kd (as a rule, the concentration at which binding is half-saturated) in series [2] stood at 0.5 µM. On to ACU (ssRNA, m6A at position 1) [(m6A)CU], for which the binding result in series [1] is listed as “binds”. Still for that read-out and setting: the same measure for GACU (ssRNA, m6A at position 2) [G(m6A)CU]: “binds”. With GAC (ssRNA, m6A at position 2) [G(m6A)C], the binding result in series [1] is given as “binds”.
